Data: the nanobody polyreactivity screen of Harvey et al. (2022)

Assay: yeast display, Sf9 membrane polyspecificity reagent, FACS + sequencing; frameworks hold sequencing errors
How it was run: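 After 36–48 hours of galactose induction, yeast (Saccharomyces cerevisiae BJ5465) displaying a synthetic nanobody library were stained at 4 °C for 1 hour with 10% biotinylated, detergent-solubilized Sf9 membrane reagent. Streptavidin microbeads enriched the stained cells before FACS sorting into low and high (top ~1%) gates on anti-HA and streptavidin fluorescence. Each clone's polyreactivity label reflects its gate of origin.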

Row | Sequence | polyreactivity (PSR sort gate)
1 | QVKLVESGGGLVQAGGSLRLSCAASGIIFYPNALGWYRQAPGKERELVAAITSDGSTYYADSVKGRFTISRDNAKNTVYLQMNSLKPEDTAVYYCGAWDDYGYDYWGQGTQVTVSS | low polyreactivity
2 | QVQLVESGGGLFQAGGSLRLSCAASGTFVTYMGWYRQEPGQERELVAAIRNGGSTNYADSVKGRFTISRDNAKNTVYLQMNSLKPEDTAVYYCAARVTYSRGYRGGSRTKYDYWGQGTQVTVSS | low polyreactivity
3 | QVQLGETGGGLVQAGGSLRLSCAASGFNFGYYVMGWYRQAPGKERELVAAITSGGSKYYADSVKGRFTISRDNAKNTVYLQMNSLKPEDTAVYYCNKYGVVLPGFDEWGQGTQVTVSS | high polyreactivity
4 | QVQLVESGGGLVQAGGSLRLSFDASGLIFYYYTMGWYRPAPGKERELVAAITWTDVDTYYADSVKGRFTISRDNAKNTVYLQMNSLKPEDTAVYYCAAEGGRTSYGGSGELDYWGQGTQVTVSS | high polyreactivity
5 | QFQLVESGGGLVQAGGSLRLSCAASGFTFEANAMGWYRKAPGKERELVASITRSDGSTHYADSVKGRFTISRDNAKNTVYLLMNRLKPEDTAVYYCAAVPESLTPKKGYGYWGKGTQVTVSS | low polyreactivity
6 | QVQLVESGGGLVQAGGSLRLSCAASGFIFYKYAKGWYRQAPGKEREFVAAITWSGGNTYYADSVKGRFTISRDNAKNTVYLQMNSLKPEDTAVYYCAARDSKWGQGTQVTVSS | low polyreactivity
7 | QVQHVESGGGLVQAGGSLRLSCAASGRTFPINAMGWYRPAPGKERELVARISRTSGSTYYADSVKGRFTISRDNAKNTVYLQMNSLKPEDTAVYYCAAVRDKYFRASYGYWGQGTQVTVSS | high polyreactivity
8 | QVQLVESGGGLVQAGGSLRLSCAASGRTFSWYAMGWYRQAPGKERELVAAITRDGGNTYYADSVKGRFTISRDHAKNTVYLQMNSLKPEDTAVYYCAKRGYVNYYCGQGTQVTVSS | high polyreactivity
9 | QVQLGESGGGLVQAGGSLRLSCAASGSIFTFNTMGRYRQAPGKERELVATISSGGRTSYADSVKGRFTISRDNAKNTVYLQMNSLKPADTAVYYCNKGYYGYTYVESNYWGLGTQVTVSS | low polyreactivity
10 | QVQLVESGRGIVQAGRSLRLSCPASGRIYPNAIGWYRQAPGKEREFVAAISRSDGSTYYADSVNGRFTISRDNAKNTVYLQMNSLKPEDTAVYYCATDYRFTSRTANFDYWGQGTLVTVSS | low polyreactivity
11 | QVQLVESGGGLVQEGGSLRLICAASGSTFIYNAMGWYRQAPGKERELVASISTSGGSTYYADSVKGRFTISRDNAKNTVYFQMNSLIPEDTAVYYCAKRYFFKYGYWGQGTQVTVSS | high polyreactivity
12 | QVQLVESGGGLVQARGSLRLSCAASGSIFSANAMGWYRQAPVKERELVAAISSSGNTNYADSVKGRFTISRDNAKNTLYLQMNSLKPEDTAVYYCAVELKQVTPGLGYITLDYWGQGTQVTVSS | low polyreactivity
13 | QVQLVESGGGLVQAGGSLRLSCAASGSIFKRYAMGRYRQAPGKERELVAAISYSGTSTYYADSVKGRFTISRDTAKNTVYLQMNSLKPEDTAVYYCNKVPGYRHYLGYPGRYGYWGQGTQVTVSS | high polyreactivity
14 | QVQLVESGGGLVQAGGSLRLSCAASGSTFEYNAMGWYRQAPGKERELVASSTNYADSVKGRFTISRDNAKNTVYLQMNSLKPEVTAVYYCAAYQDYVYSESLFSVSARMYYWGQGTQVTVSS | low polyreactivity
15 | QVQLVESGGGLVQAGGSLRLSCAASGRIFRNYGMGWYRQAPGKERELVATITWTGGSTFYADSVKGRFTISRDNAKNTVYLQMNSLKPEDTAVYYCAAEWHRLIYFSPRYDFDYWGQGTQVTVSS | low polyreactivity
16 | QVQLVESGGGLVQAGGSLRLSCAASGSTFPSYAMGCYRQAPAKERELVAAINSGGGTNYADSVKGRFTISRDNAKNTVYLQMNSLKPEDTAVYYCAKSRYDYTKTEGGYWGQGTQVTVSS | low polyreactivity

Row | Sequence | polyreactivity (PSR sort gate)
17 | QVQLVESGGGLVKAGGSLRLSCAASGRTFGYNAMGWYRQAPGKEREFVAAISWSGGRTYYADSVKGRFTISRDNAKNTVYLQMNSLKPEDTAVYYCAAAAPHLSAKMDYWGQGTQVTVSS | low polyreactivity
18 | QVQLVETGGGLVQAGGSLRLSCAASGRTFEGNAMGWYRQAPGKERELVAAISGSGGRTYYADSVKGRFTISRDNAKYTVYLQMNSLKPEDTAVYYETLYSVYNPRRFNYWGQGTQVTVSS | high polyreactivity
19 | QVQLVESGGGLVQAGGSLRLSCAASGSIFAVNTMGWYIQAPGKERELVAAISQRGSSTYYADSVKGRFTISRDNAKNTVYLQMNSLKPEDTAVYYCAKRFIYGRYNYWGQGTQVTVSS | high polyreactivity
20 | QVHLVESGGGLVQAGGSLRLSCAASGRIFRQYAMGWYRQAPGKERELVAAISYSGGSTYYADSVKGRFTISRDYAKNTVYFQMNSLKPEDTAVYYCAATRWVPATGKFGYWGQGTQVTVSS | high polyreactivity
21 | QVQLVESGGGLVQAGGSLRLSCAASGLTFAWYAMGWYRPAPGKERELVATITSGGSTNYADSVKGRFTISRDNAKNTVYLQMNSLKPEDTAVYYCNADYIYYGTTYEYWGQGTQVTVSS | low polyreactivity
22 | QVQLVESGGGLVQAGGSLRLSCAASGFTFHYYAMGWYRQAPGKEWELVAAITKSGGRTSYADSVKGRFTISRDNAKNTVYLQMNSLKPEDTAVYYCAAARYRARIGNDYWGQGTQVTVSS | low polyreactivity
23 | QVQLVESGGGLVQAGGSLRLSCAASGRTFTEYAMGWYRQAPGKERELVAGIDSGSGSTYYADSVKGRFTISRDNAKNTVYLQMNSLKPEDTAVYYCAADHAYYRYDYWGQGTQVTVSS | low polyreactivity
24 | QVQLQESGGGLVQAGGSLRLSCAASGTIFWLWAMGWYCPAPGKERELVASISSGGTTYHADSVKGRFTISRDNAKNTVYLQMNSLKPEDTAVYYSAAFYVATAKLGYWGQGSQVTVSS | low polyreactivity
25 | QVQLVESGGGLVQAGGSLRLSCPASGFIYPVYAMGWSRQAPGKERELVAAISRRGGSTYYADSVKGRFTISRDNAKNTVYLQMNSLKPDDTAVYYCAKDGRGDPVKDDYWGLGTQVTVSS | high polyreactivity
26 | QVQLVESGGGLVQAGGSLRLSCAASGITFDINAMGWYRQAPGKERELVAAISKSGRTYYADSVKGRFTISRDNAKNTVYLQMNSLKPEDTAVYYCNKVPYPSNDYWGQGTQVTVSS | high polyreactivity
27 | QVQLVESGGGLVQAGGSLRLSCAASGRLLGFNVMGWYRQAPGKERELVAAITTSGGSTYYADSVKGRFTISRDNAKNTVYLQMHSLKPEDTAVYYCAAVKVQITLLHGDDYWGQGTQVTVSS | high polyreactivity
28 | QVQLVESGGGLVQAGGSLRLSCAASGIIFGYSAMGWYRQAPGKERELVAAITRSGSSTYYADSVKGRFTISRDNAKNTVYLQMNSLKPEDTAVYYCAADNFYQSYGYWGQGTQVTVSS | low polyreactivity
29 | QVQHVESVGCLVQAAGSLPLSCAASGSTFSSYAMGWYRQAPGKERELVAAISTSGGSTYYADSVKGRFTISRDNAKNTVYLQMNSLKQEDTAVYYCYAGPSYYPFFWPDFEYWVQGTQVTVSS | high polyreactivity
30 | QVQLVESGGGLVQAGGSLRLSCAASGFTFSFYTMGWYRQAPGKERELVAAISTSGSTYYADSVKGRFTISRDNAKNTVYLQMNSLKPEDTAVYYCAAGRWWRYFTWHGYWGQGTQVTVSS | high polyreactivity
31 | QVQIVESGGGLVQAGGSLRLRCAASGRIIYKNAMGWYRQAPGKERELVAAITTSGGSTYYADSVKGRFTISRDNSKNTVYLEMNSLKPEDTAVYYCATRGHYRQTINYWGQGTQVTVSS | high polyreactivity
32 | QVQLVESGGGLVQAGGSLRLSCAASGRTFSANAMGWYRQAPGTEREGVATMTVRGGSTNYADSVKGRFTISRDNAKNTVYLQMNSLKPEDTAVYYCNAYVNSNVRWAYWGFDYCGQGTQVTVSS | high polyreactivity
